# From patent publication US20230272028
# ALU30-7, sequence (chain, as listed by the source): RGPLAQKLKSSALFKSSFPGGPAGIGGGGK
# ALU30-10, sequence (chain, as listed by the source): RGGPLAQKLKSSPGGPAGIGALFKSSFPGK
# ALU30-13, sequence (chain, as listed by the source): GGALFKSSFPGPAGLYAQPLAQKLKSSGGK
# hepsin, recombinant human, sequence (chain, as listed by the source): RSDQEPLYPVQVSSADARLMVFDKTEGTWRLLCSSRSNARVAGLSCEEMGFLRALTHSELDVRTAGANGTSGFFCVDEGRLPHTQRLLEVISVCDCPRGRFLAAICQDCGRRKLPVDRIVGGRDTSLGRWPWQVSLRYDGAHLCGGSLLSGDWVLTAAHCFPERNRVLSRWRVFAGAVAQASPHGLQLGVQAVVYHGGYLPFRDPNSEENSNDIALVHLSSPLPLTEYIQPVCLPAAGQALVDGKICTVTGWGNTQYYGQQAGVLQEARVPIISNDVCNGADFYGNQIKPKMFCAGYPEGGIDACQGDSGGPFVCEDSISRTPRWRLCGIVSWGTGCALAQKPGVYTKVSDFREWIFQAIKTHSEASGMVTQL
# ALU30-8, sequence (chain, as listed by the source): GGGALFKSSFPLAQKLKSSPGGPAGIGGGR
# ALU30-9, sequence (chain, as listed by the source): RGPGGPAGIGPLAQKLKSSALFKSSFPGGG
# ALU30-5, sequence (chain, as listed by the source): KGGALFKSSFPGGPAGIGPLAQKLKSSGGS
# Factor Xa, recombinant human, sequence (chain): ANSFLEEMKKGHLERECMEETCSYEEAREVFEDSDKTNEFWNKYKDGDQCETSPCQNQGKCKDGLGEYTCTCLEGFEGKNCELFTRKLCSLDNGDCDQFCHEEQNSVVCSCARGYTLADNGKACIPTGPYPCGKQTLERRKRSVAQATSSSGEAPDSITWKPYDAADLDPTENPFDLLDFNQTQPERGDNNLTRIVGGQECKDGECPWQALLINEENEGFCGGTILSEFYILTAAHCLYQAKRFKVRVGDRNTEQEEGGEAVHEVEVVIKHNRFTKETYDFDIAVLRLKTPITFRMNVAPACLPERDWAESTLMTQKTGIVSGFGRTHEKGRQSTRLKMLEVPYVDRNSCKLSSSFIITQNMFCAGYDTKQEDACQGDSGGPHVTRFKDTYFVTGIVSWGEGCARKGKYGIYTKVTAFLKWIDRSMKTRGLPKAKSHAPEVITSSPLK
# ALU30-14, sequence (chain, as listed by the source): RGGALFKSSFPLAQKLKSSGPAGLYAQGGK
# ALU30-12, sequence (chain, as listed by the source): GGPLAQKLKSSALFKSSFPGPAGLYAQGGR
# ALU30-15, sequence (chain, as listed by the source): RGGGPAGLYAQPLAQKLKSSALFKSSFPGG
# ALU30-16, sequence (chain, as listed by the source): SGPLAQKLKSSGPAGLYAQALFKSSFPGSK
# MMP-9, recombinant human, sequence (chain, as listed by the source): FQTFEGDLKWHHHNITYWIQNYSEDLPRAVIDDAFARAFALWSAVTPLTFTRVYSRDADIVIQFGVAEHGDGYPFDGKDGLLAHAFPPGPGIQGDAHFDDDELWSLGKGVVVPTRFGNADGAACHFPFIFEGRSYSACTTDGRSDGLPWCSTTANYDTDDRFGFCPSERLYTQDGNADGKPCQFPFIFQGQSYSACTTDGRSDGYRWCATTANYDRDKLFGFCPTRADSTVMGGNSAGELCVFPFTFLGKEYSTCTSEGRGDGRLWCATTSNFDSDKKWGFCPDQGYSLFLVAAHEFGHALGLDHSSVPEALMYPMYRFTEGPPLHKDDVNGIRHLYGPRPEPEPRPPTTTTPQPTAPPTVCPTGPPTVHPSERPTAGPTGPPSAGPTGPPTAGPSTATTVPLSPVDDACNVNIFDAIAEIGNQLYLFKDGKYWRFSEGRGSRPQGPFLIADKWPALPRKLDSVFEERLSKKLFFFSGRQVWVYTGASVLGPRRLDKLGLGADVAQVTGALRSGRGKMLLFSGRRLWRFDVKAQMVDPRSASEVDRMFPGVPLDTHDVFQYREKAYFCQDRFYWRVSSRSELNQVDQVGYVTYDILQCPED
# ALU30-6, sequence (chain, as listed by the source): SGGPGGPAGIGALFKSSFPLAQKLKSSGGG
# ALU30-2, sequence (chain, as listed by the source): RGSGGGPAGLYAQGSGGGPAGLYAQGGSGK
# ALU30-1, sequence (chain, as listed by the source): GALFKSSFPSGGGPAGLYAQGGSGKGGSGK
# ALU30-19, sequence (chain, as listed by the source): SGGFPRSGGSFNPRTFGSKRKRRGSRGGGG
# ALU30-17, sequence (chain, as listed by the source): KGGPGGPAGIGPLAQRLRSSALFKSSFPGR
# ALU30-3, sequence (chain, as listed by the source): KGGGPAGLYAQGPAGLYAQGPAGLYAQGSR
# ALU30-4, sequence (chain, as listed by the source): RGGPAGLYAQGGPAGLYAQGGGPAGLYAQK
# ALU30-18, sequence (chain, as listed by the source): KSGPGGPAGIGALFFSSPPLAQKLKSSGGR
# ALU30-11, sequence (chain, as listed by the source): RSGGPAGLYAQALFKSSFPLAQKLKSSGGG
Substance,30-mer peptide degradation by recombinant enzyme (MSP-MS) (ALU30-5),30-mer peptide degradation by recombinant enzyme (MSP-MS) (ALU30-10),30-mer peptide degradation by recombinant enzyme (MSP-MS) (ALU30-6),30-mer peptide degradation by recombinant enzyme (MSP-MS) (ALU30-9),30-mer peptide degradation by recombinant enzyme (MSP-MS) (ALU30-14),30-mer peptide degradation by recombinant enzyme (MSP-MS) (ALU30-13),30-mer peptide degradation by recombinant enzyme (MSP-MS) (ALU30-4),30-mer peptide degradation by recombinant enzyme (MSP-MS) (ALU30-2),30-mer peptide degradation by recombinant enzyme (MSP-MS) (ALU30-7),30-mer peptide degradation by recombinant enzyme (MSP-MS) (ALU30-15),30-mer peptide degradation by recombinant enzyme (MSP-MS) (ALU30-3),30-mer peptide degradation by recombinant enzyme (MSP-MS) (ALU30-12),30-mer peptide degradation by recombinant enzyme (MSP-MS) (ALU30-8),30-mer peptide degradation by recombinant enzyme (MSP-MS) (ALU30-1),30-mer peptide degradation by recombinant enzyme (MSP-MS) (ALU30-19),30-mer peptide degradation by recombinant enzyme (MSP-MS) (ALU30-18),30-mer peptide degradation by recombinant enzyme (MSP-MS) (ALU30-11),30-mer peptide degradation by recombinant enzyme (MSP-MS) (ALU30-16),comparison of cleavage efficiencies across the 30-mer library (ALU30-16),30-mer peptide degradation by recombinant enzyme (MSP-MS) (ALU30-17),other results
"MMP-9, recombinant human","The FAPa_1 motif was not cleaved by MMP9, however, when followed either by the ADAM17_2 motif or the spacing residues GG",the FAPa_1 motif was also cleaved within the peptides bearing FAPa_1 directly followed by the CTSL1_1 motif at PGGPAG|IGALF (SEQ ID NO: 247); these were lower efficiency cleavages,the FAPa_1 motif was also cleaved within the peptides bearing FAPa_1 directly followed by the CTSL1_1 motif at PGGPAG|IGALF (SEQ ID NO: 247); these were lower efficiency cleavages,"The FAPa_1 motif was not cleaved by MMP9, however, when followed either by the ADAM17_2 motif or the spacing residues GG",The slowest peptides bear the MMP14_1 motif near the C-terminus of the 30-mer peptide,The next most efficient substrates contained the pair of motifs where MMP14_1 was followed directly by ADAM17_2,The most efficient MMP9 substrates were those that bore three-repeats of the MMP14_1 motif,The single or double MMP14_1 motif-bearing peptides were next in the order,"The FAPa_1 motif was not cleaved by MMP9, however, when followed either by the ADAM17_2 motif or the spacing residues GG",The next most efficient substrates contained the pair of motifs where MMP14_1 was followed directly by ADAM17_2,The most efficient MMP9 substrates were those that bore three-repeats of the MMP14_1 motif,The slowest peptides bear the MMP14_1 motif near the C-terminus of the 30-mer peptide,"The FAPa_1 motif was not cleaved by MMP9, however, when followed either by the ADAM17_2 motif or the spacing residues GG",The single or double MMP14_1 motif-bearing peptides were next in the order,,,,,,,product formation at single bonds (MSP-MS) (ALU30-2): the specific cleavage of the Alu30-2 peptide was more efficient than the Alu30-1 peptide; product formation at single bonds (MSP-MS) (ALU30-1): the specific cleavage of the Alu30-2 peptide was more efficient than the Alu30-1 peptide
"Factor Xa, recombinant human","the only library peptide with significant cleavage was Alu30-5, cleaved at the CTSL1_1 motif ALFKS|SFP (SEQ ID NO: 198), upstream of a FAPa_1 motif",all other peptides bearing a CTSL1_1 motif were cleaved by Factor Xa at either ALF|KSSFP (SEQ ID NO: 198) or ALFKS|SFP (SEQ ID NO: 198),all other peptides bearing a CTSL1_1 motif were cleaved by Factor Xa at either ALF|KSSFP (SEQ ID NO: 198) or ALFKS|SFP (SEQ ID NO: 198),all other peptides bearing a CTSL1_1 motif were cleaved by Factor Xa at either ALF|KSSFP (SEQ ID NO: 198) or ALFKS|SFP (SEQ ID NO: 198),all other peptides bearing a CTSL1_1 motif were cleaved by Factor Xa at either ALF|KSSFP (SEQ ID NO: 198) or ALFKS|SFP (SEQ ID NO: 198),all other peptides bearing a CTSL1_1 motif were cleaved by Factor Xa at either ALF|KSSFP (SEQ ID NO: 198) or ALFKS|SFP (SEQ ID NO: 198),,,all other peptides bearing a CTSL1_1 motif were cleaved by Factor Xa at either ALF|KSSFP (SEQ ID NO: 198) or ALFKS|SFP (SEQ ID NO: 198),all other peptides bearing a CTSL1_1 motif were cleaved by Factor Xa at either ALF|KSSFP (SEQ ID NO: 198) or ALFKS|SFP (SEQ ID NO: 198),,all other peptides bearing a CTSL1_1 motif were cleaved by Factor Xa at either ALF|KSSFP (SEQ ID NO: 198) or ALFKS|SFP (SEQ ID NO: 198),all other peptides bearing a CTSL1_1 motif were cleaved by Factor Xa at either ALF|KSSFP (SEQ ID NO: 198) or ALFKS|SFP (SEQ ID NO: 198),all other peptides bearing a CTSL1_1 motif were cleaved by Factor Xa at either ALF|KSSFP (SEQ ID NO: 198) or ALFKS|SFP (SEQ ID NO: 198),Peptide Alu30-19 with this motif was completely degraded before the 5 min time point,The peptide with the motif CTSL1_2 was cleaved at the lowest efficiency,all other peptides bearing a CTSL1_1 motif were cleaved by Factor Xa at either ALF|KSSFP (SEQ ID NO: 198) or ALFKS|SFP (SEQ ID NO: 198),all other peptides bearing a CTSL1_1 motif were cleaved by Factor Xa at either ALF|KSSFP (SEQ ID NO: 198) or ALFKS|SFP (SEQ ID NO: 198),"the lowest susceptibility to thrombin, Factor Xa, and hepsin",all other peptides bearing a CTSL1_1 motif were cleaved by Factor Xa at either ALF|KSSFP (SEQ ID NO: 198) or ALFKS|SFP (SEQ ID NO: 198),
"thrombin, recombinant human","Thrombin showed higher activity than Factor Xa, and it cleaved each of the 30-mer peptides","Thrombin showed higher activity than Factor Xa, and it cleaved each of the 30-mer peptides",the CTSL1_2 motif had lower cleavage activity than did the CTSL1_1 motif (peptides Alu30-18 vs Alu30-6),The two alternate ADAM17 motifs were cleaved with similar efficiency (peptides Alu30-17 vs Alu30-9),"Thrombin showed higher activity than Factor Xa, and it cleaved each of the 30-mer peptides","the peptides Alu30-12, Alu30-13 and Alu30-15, with MMP141 motifs in combination with ADAM17_2 and CTSL1_1, were cleaved at lower efficiency by thrombin",Alu30-4 was also an efficient substrate,"The peptide Alu30-2, bearing two MMP14_1 motifs, was less susceptible to thrombin","Thrombin showed higher activity than Factor Xa, and it cleaved each of the 30-mer peptides","the peptides Alu30-12, Alu30-13 and Alu30-15, with MMP141 motifs in combination with ADAM17_2 and CTSL1_1, were cleaved at lower efficiency by thrombin",The peptides Alu30-1 and Alu30-3 were the most rapidly cleaved in the library,"the peptides Alu30-12, Alu30-13 and Alu30-15, with MMP141 motifs in combination with ADAM17_2 and CTSL1_1, were cleaved at lower efficiency by thrombin","Thrombin showed higher activity than Factor Xa, and it cleaved each of the 30-mer peptides",The peptides Alu30-1 and Alu30-3 were the most rapidly cleaved in the library,"Thrombin showed higher activity than Factor Xa, and it cleaved each of the 30-mer peptides",the CTSL1_2 motif had lower cleavage activity than did the CTSL1_1 motif (peptides Alu30-18 vs Alu30-6),"Thrombin showed higher activity than Factor Xa, and it cleaved each of the 30-mer peptides","Thrombin showed higher activity than Factor Xa, and it cleaved each of the 30-mer peptides","the lowest susceptibility to thrombin, Factor Xa, and hepsin",The two alternate ADAM17 motifs were cleaved with similar efficiency (peptides Alu30-17 vs Alu30-9),
"hepsin, recombinant human",,,,,,,,,,,,,,,Alu30-19 was cleaved at all three motifs within the first 15 min of the reaction,,,,"the lowest susceptibility to thrombin, Factor Xa, and hepsin",,"apparent catalytic efficiency (kcat/KM) (ALU30-19): The authentic peptide Alu30-19, as well as the top cleaved peptides Alu30-8,-9, -12, and -14 all had apparent catalytic efficiencies on the same order of 105; apparent catalytic efficiency (kcat/KM) (ALU30-9): The authentic peptide Alu30-19, as well as the top cleaved peptides Alu30-8,-9, -12, and -14 all had apparent catalytic efficiencies on the same order of 105; apparent catalytic efficiency (kcat/KM) (ALU30-14): The authentic peptide Alu30-19, as well as the top cleaved peptides Alu30-8,-9, -12, and -14 all had apparent catalytic efficiencies on the same order of 105; comparison of cleavage efficiencies across the 30-mer library (ALU30-15): it had slightly higher hepsin susceptibility and lower CTSL1 activity; apparent catalytic efficiency (kcat/KM) (ALU30-12): The authentic peptide Alu30-19, as well as the top cleaved peptides Alu30-8,-9, -12, and -14 all had apparent catalytic efficiencies on the same order of 105; apparent catalytic efficiency (kcat/KM) (ALU30-8): The authentic peptide Alu30-19, as well as the top cleaved peptides Alu30-8,-9, -12, and -14 all had apparent catalytic efficiencies on the same order of 105"
